Assay results reported in patent US4496689A, “Covalently attached complex of alpha-1-proteinase inhibitor with a water soluble polymer” (Miles Laboratories, Inc., priority 1983, dated 1985).

Columns and labels:
[1] = target: T1, Porcine pancreatic elastase type III (Sus scrofa, UniProt P00772); assay: Elastase inhibitory capacity (EIC) assay with chromogenic substrate SA3 pNA; type: biochemical; conditions: for % EIC Recovered: recovery across covalent coupling
T1 construct: purchased Sigma Chemicals Co. (St. Louis, MO)
From the text: Porcine pancreatic elastase type III and chromogenic substrate N-succinyl-L-anlanyl-L-alanyl-L-alanyl-p-nitroanilide (SA3 pNA) were obtained from Sigma Chemicals Co. (St. Louis, MO). Hydrolysis of the chromogenic substrate by the elastase liberates p-nitroaniline which gives a yellow color whose absorbance is measurable spectrophotometrically (Model 1084 UV Spectrophotometer, Gilford Instruments, Oberlin, OH) at 405 nm.
Comparisons of the linear changes of absorbance with time both in the presence and in the absence of sample alpha-l-proteinase inhibitor and of sample alpha-l-proteinase inhibitor-dextran covalent complex were made. The amount of inhibitor was then calculated based on the known molecular weights of the elastase and alpha-l-proteinase inhibitor, on the known 1:1 stoichrometry, and on the known amount of elastase used. A pool of normal human plasma (>1000 donors) was used as the standard and assigned a value of 1 μ/ml of α1 PI.

[2] = target: T1, Porcine pancreatic elastase type III; assay: Association rate constant (kassoc) between enzyme and inhibitor; type: biochemical; conditions: for t0.5 (half life of the enzyme-inhibitor association reaction) / kassoc, rate constant for the association between the enzyme and the inhibitor: equimolar enzyme and inhibitor, 3.37×10^-7, 37° C., pH 7.4; for kassoc, rate constant for the association between the enzyme and the inhibitor: calculated by equation (4); for Initial Reac. Rate: 37° C.
Experimental: Association constants (kassoc) between the enzyme (E) and the inhibitor (I) were determined as follows: 25 μl each of equimolar amounts of the enzyme and the inhibitor were incubated at 37° C. with 1950 μl of buffer (0.05M TRIS, 0.15M NaCl, pH 7.4) (TRIS® is tris(hydroxymethyl)amino methane, supplied by Sigma, St. Louis, Mo.) to obtain a resultant concentration of 3.37×10^-7. At various times, a 200 μl aliquot of the enzyme-inhibitor solution was added to 780 μl buffer and 20 μl substrate (SA3 pNA) (60 mM) and the hydrolysis rate followed in the temperature controlled (37° C.) cuvette with a recorder (Model 6051, Gilford Instruments, Oberlin, Ohio) attachment. During hydrolysis no further enzyme-inhibitor association was assumed (5 fold dilution compared to preincubation) and the initial reaction rate (v) was indicative of the free enzyme (E) present at the end of the respective preincubation times. Enzyme inhibitor association is represented as: [formula] for kdissoc .perspectiveto.0 and equimolar concentrations of E and I we get
With initial conditions t=0, E=Eo (all free enzyme) equation (2) integrates to
By defining half life of the reaction t0.5 to be at E=0.5Eo we get
The initial reaction rate (Δ absorbance/5 minutes) depicts the hydrolysis rate of the substrate by the free enzyme present following the respective preincubation time. Initial reaction rate, in the absence of the inhibitor, was determined and the time required for this rate to decrease to half of its original value (t0.5) was calculated. Equation (4) was subsequently used to calculate kassoc for each of the 3 cases.

elastase [3] = target: T2, elastase (Sus scrofa, UniProt P00772); assay: pH stability (pH 3.0), recovery of EIC; type: physicochemical, porcine; conditions: pH 3.0 for 24 hours at +5° C.; for Recovery of EIC as % of Control After Adjustment to pH 7.4, Incubation Time 24 hrs. (5° C.): back to pH 7.40, further 24 hrs. at 5° C.; for Recovery of EIC as % of Control After Adjustment to pH 7.4, Immediate: then back to pH 7.40, assayed immediately
T2 construct: purchased Sigma Chemicals Co. (St. Louis, MO)
Experimental: In order to investigate the pH stability of these preparations, experimental samples were adjusted to pH 3.0 with controls at pH 7.40 and incubated for 24 hours at +5° C. Following this, pH was adjusted back up to 7.40 for the experimental samples and EIC assays carried out immediately. Samples were further incubated for 24 hours at +5° C. and reassayed.

[4] = test system: Antiserum (rabbit anti-human) to alpha-l-proteinase inhibitor; assay: Precipitin reaction with rabbit antiserum to the unmodified protein; type: binding; conditions: for Precipitin Reaction: rabbit antiserum dil. 1:2; for Amount of protein needed to obtain a strong precipitin reaction: rabbit antiserum to the unmodified protein
Experimental: Antiserum (rabbit anti-human) to alpha-l-proteinase inhibitor was obtained from Miles Laboratories (Elkhart, IN).
For unmodified alpha-1-proteinase inhibitor, only 0.092 μg of protein was sufficient to obtain a strong precipitin reaction. For the 0.117 moles dextran/mole alpha-1-proteinase inhibitor conjugate, 14.5 μg of alpha-1-proteinase inhibitor was needed to elicit a similar response--a very significant increase of antigen concentration. For the 0.585 moles dextran/mole alpha-1-proteinase inhibitor conjugate increase of antigen concentration up to 29.0 μg was not sufficient to obtain a strong precipitin reaction with the antiserum.

elastase [5] = target: T2, elastase; assay: Oxidative inactivation by H2O2, recovery of EIC; type: physicochemical, porcine; conditions: 0-28 mM H2O2, 37° C., 1 hour, pH 7.4 (FIG. 2)
Experimental: Hydrogen peroxide (30% solution, Sigma Chemicals) was used as the oxidation agent to investigate the effect of 0-28 mM H2 O2 on the recovery of elastase inhibitory capacity (EIC) following incubation at 37° C. for 1 hour.
FIG. 2 (oxidation at pH 7.4) depicts the effects of various concentrations of H2 O2 on the samples. […] It is to be understood that any antioxidant enzyme may be used, e.g. catalase or an equivalent enzyme such as superoxide dismutase.

porcine elastase = conditions: each at 1.4×10^-8 M; Beatty et al, J. Biol. Chem., 255, 3931 (1980); cited from earlier work
elastase [6] = target: T2, elastase; assay: Heat stability at 60° C., EIC readout; type: physicochemical, porcine; conditions: within 60 minutes (FIG. 1)
Experimental: Alpha-1-proteinase inhibitor and its dextran conjugates, with and without added beef liver catalase as antioxidant, were heated in closed tubes at 60±0.2° C. The tubes were preheated and due to large mass difference the samples reached the bath temperature in less than 60 seconds. At designated time intervals samples were withdrawn and instantaneously cooled down (by ice bath) to room temperature prior to assay.
A significant difference here is observed between the native protein and its conjugates.

[7] = bovine liver catalase modified with methoxypolyethylene glycol; Abuchowski et al; cited from earlier work

T2 sequence (P00772 27-266): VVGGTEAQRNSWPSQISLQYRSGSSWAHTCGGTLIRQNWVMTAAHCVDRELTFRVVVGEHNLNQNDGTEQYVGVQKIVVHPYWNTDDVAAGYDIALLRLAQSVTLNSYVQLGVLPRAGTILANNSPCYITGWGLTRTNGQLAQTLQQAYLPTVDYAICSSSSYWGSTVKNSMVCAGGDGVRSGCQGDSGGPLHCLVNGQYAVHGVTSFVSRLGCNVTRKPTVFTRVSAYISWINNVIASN
T1 sequence (P00772 27-266): as above

In the case of “4: alpha-1-proteinase inhibitor-dextran complex, dextran mol. wt. 10,300, 100 mg inhibitor per gram of dextran, ratio 0.117 [Example 4]”, the “% EIC Recovered” value [1] is reported as 28.8%, the “t0.5 (half life of the enzyme-inhibitor association reaction)” value [2] is reported as 21.49 s and the “kassoc, rate constant for the association between the enzyme and the inhibitor” value [2] is reported as 141000 M⁻¹ s⁻¹. The “Initial Reac. Rate” value ([2]; preincubation time 20 secs.) was 0.450 Δ absorbance/5 minutes, the “Initial Reac. Rate” value ([2]; preincubation time 45 secs.) was 0.285 Δ absorbance/5 minutes and the “Initial Reac. Rate” value ([2]; preincubation time 75 secs.) was 0.195 Δ absorbance/5 minutes. For the same molecule, the “Initial Reac. Rate” value ([2]; preincubation time 120 secs.) was 0.130 Δ absorbance/5 minutes, the “Recovery of EIC as % of Control After Adjustment to pH 7.4, Incubation Time 24 hrs. (5° C.)” value (elastase [3]) was 81% and the “Recovery of EIC as % of Control After Adjustment to pH 7.4, Immediate” value (elastase [3]) was 68%. For the same molecule, the “Precipitin Reaction” value ([4]; antigen conc. 14.5 μg) was “Strong” and the “Amount of protein needed to obtain a strong precipitin reaction” value (“Amount of protein needed” below) [4] was 14.5 µg.

For “5: alpha-1-proteinase inhibitor-dextran complex, dextran mol. wt. 10,300, 20 mg inhibitor per gram of dextran, ratio 0.585 [Example 5]”, the “% EIC Recovered” value [1] was 18.4%, the “t0.5 (half life of the enzyme-inhibitor association reaction)” value [2] was 34.67 s and the “kassoc, rate constant for the association between the enzyme and the inhibitor” value [2] was 85600 M⁻¹ s⁻¹. The “Initial Reac. Rate” value ([2]; preincubation time 25 secs.) was 0.495 Δ absorbance/5 minutes, the “Initial Reac. Rate” value ([2]; preincubation time 65 secs.) was 0.285 Δ absorbance/5 minutes and the “Initial Reac. Rate” value ([2]; preincubation time 100 secs.) was 0.205 Δ absorbance/5 minutes. The “Initial Reac. Rate” value ([2]; preincubation time 145 secs.) was 0.135 Δ absorbance/5 minutes, the “Recovery of EIC as % of Control After Adjustment to pH 7.4, Immediate” value (elastase [3]) was 55% and the “Precipitin Reaction” value ([4]; antigen conc. 1.95 μg) was “Weak”. The “Precipitin Reaction” value ([4]; antigen conc. 29.0 μg) was “Weak” and the “Amount of protein needed” value [4] was > 29.0 µg.

With “Native α1 PI: human plasma glycoprotein alpha-1-proteinase inhibitor, molecular weight 53,000, purified from Cohn Fraction IV-1” the “Elastase inhibitory capacity/mg total protein” value ([1]; purified from Cohn Fraction IV-1) was 1.5, the “kassoc, rate constant for the association between the enzyme and the inhibitor” value [2] was 185000 M⁻¹ s⁻¹ and the “kassoc, rate constant for the association between the enzyme and the inhibitor” value ([2]; listed as native protein) was 185000 M⁻¹ s⁻¹. The “Initial Reac. Rate” value ([2]; preincubation time 15 secs.) was 0.460 Δ absorbance/5 minutes, the “Initial Reac. Rate” value ([2]; preincubation time 30 secs.) was 0.310 Δ absorbance/5 minutes and the “Initial Reac. Rate” value ([2]; preincubation time 60 secs.) was 0.173 Δ absorbance/5 minutes. The “Initial Reac. Rate” value ([2]; preincubation time 65 secs.) was 0.170 Δ absorbance/5 minutes, the “Initial Reac. Rate” value ([2]; preincubation time 90 secs.) was 0.128 Δ absorbance/5 minutes and the “Effect of H2O2 oxidation on EIC” value (elastase [5]) was “significant progressive loss of EIC”. The “Recovery of EIC as % of Control After Adjustment to pH 7.4, Incubation Time 24 hrs. (5° C.)” value (elastase [3]) was 66%, the kassoc (porcine elastase) was 1×10^5 M^-1 sec.^-1 and the “Precipitin Reaction” value ([4]; antigen conc. 0.092 μg) was “Strong”. The “Amount of protein needed” value [4] was 0.092 µg and the “Loss of initial activity (EIC) on heating” value (elastase [6]) was > 90%.

B1: PEG-1900-catalase: bovine liver catalase covalently modified with methoxypolyethylene glycol of 1900 daltons using cyanuric chloride (Abuchowski et al) (conjugate, UniProt P00432 2-527, looked up)
Catalase: ADNRDPASDQMKHWKEQRAAQKPDVLTTGGGNPVGDKLNSLTVGPRGPLLVQDVVFTDEMAHFDRERIPERVVHAKGAGAFGYFEVTHDITRYSKAKVFEHIGKRTPIAVRFSTVAGESGSADTVRDPRGFAVKFYTEDGNWDLVGNNTPIFFIRDALLFPSFIHSQKRNPQTHLKDPDMVWDFWSLRPESLHQVSFLFSDRGIPDGHRHMNGYGSHTFKLVNANGEAVYCKFHYKTDQGIKNLSVEDAARLAHEDPDYGLRDLFNAIATGNYPSWTLYIQVMTFSEAEIFPFNPFDLTKVWPHGDYPLIPVGKLVLNRNPVNYFAEVEQLAFDPSNMPPGIEPSPDKMLQGRLFAYPDTHRHRLGPNYLQIPVNCPYRARVANYQRDGPMCMMDNQGGAPNYYPNSFSAPEHQPSALEHRTHFSGDVQRFNSANDDNVTQVRTFYLKVLNEEQRKRLCENIAGHLKDAQLFIQKKAVKNFSDVHPEYGSRIQALLDKYNEEKPKNAVHTYVQHGSHLSAREKANL
modifications: mPEG 1900
For B1, the Retained enzymatic activity [7] is given as 93%.

B2: PEG-5000-catalase: bovine liver catalase covalently modified with methoxypolyethylene glycol PEG-5000 using cyanuric chloride (Abuchowski et al) (conjugate, UniProt P00432 2-527, looked up)
Catalase: ADNRDPASDQMKHWKEQRAAQKPDVLTTGGGNPVGDKLNSLTVGPRGPLLVQDVVFTDEMAHFDRERIPERVVHAKGAGAFGYFEVTHDITRYSKAKVFEHIGKRTPIAVRFSTVAGESGSADTVRDPRGFAVKFYTEDGNWDLVGNNTPIFFIRDALLFPSFIHSQKRNPQTHLKDPDMVWDFWSLRPESLHQVSFLFSDRGIPDGHRHMNGYGSHTFKLVNANGEAVYCKFHYKTDQGIKNLSVEDAARLAHEDPDYGLRDLFNAIATGNYPSWTLYIQVMTFSEAEIFPFNPFDLTKVWPHGDYPLIPVGKLVLNRNPVNYFAEVEQLAFDPSNMPPGIEPSPDKMLQGRLFAYPDTHRHRLGPNYLQIPVNCPYRARVANYQRDGPMCMMDNQGGAPNYYPNSFSAPEHQPSALEHRTHFSGDVQRFNSANDDNVTQVRTFYLKVLNEEQRKRLCENIAGHLKDAQLFIQKKAVKNFSDVHPEYGSRIQALLDKYNEEKPKNAVHTYVQHGSHLSAREKANL
modifications: mPEG 5000
In the case of B2, the Retained enzymatic activity [7] is listed as 95%.
